{
  "source": "patent US20090098106A1",
  "about": "(YEDA RESEARCH AND DEVELOPMENT, published 2009)",
  "binders": {"B1": {"name": "NIK kinase domain (kinase motif, amino acids 400-650) (other)", "chain": "ATHQLRLGRGSFGEVHRMEDKQTGFQCAVKKVRLEVFRAEELMACAGLTSPRIVPLYGAVREGPWVNIFMELLEGGSLGQLVKEQGCLPEDRALYYLGQALEGLEYLHSRRILHGDVKADNVLLSSDGSHAALCDFGHAVCLQPDGLGKSLLTGDYIPGTETHMAPEVVLGRSCDAKVDVWSSCCMMLHMLNGCHPWTQFFRGPLCLKIASEPPPVREIPPSCAPLTAQAIQEGLRKEPIHRVSAAELGGK", "notes": "also called kinase motif of NIK"}, "B2": {"name": "HC8 (α7) subunit of the human 20S proteasome (other, UniProt P25788 1-255, looked up)", "chain": "MSSIGTGYDLSASTFSPDGRVFQVEYAMKAVENSSTAIGIRCKDGVVFGVEKLVLSKLYEEGSNKRLFNVDRHVGMAVAGLLADARSLADIAREEASNFRSNFGYNIPLKHLADRVAMYVHAYTLYSAVRPFGCSFMLGSYSVNDGAQLYMIDPSGVSYGYWGCAIGKARQAAKTEIEKLQMKEMTCRDIVKEVAKIIYIVHDEVKDKAFELELSWVGELTNGRHEIVPKDIREEAEKYAKESLKEEDESDDDNM", "notes": "Yeast two-hybrid: prey from a human bone marrow library, re-cloned into pGADT7; Co-immunoprecipitation: N-terminal HIS tag and/or C-terminal myc tag (pCDNA3); also called human C8"}, "B3": {"name": "NIK-N terminus (amino acids 1-367) (other)", "chain": "MAVMEMACPGAPGSAVGQQKELPKPKEKTPPLGKKQSSVYKLEAVEKSPVFCGKWEILNDVITKGTAKEGSEAGPAAISIIAQAECENSQEFSPTFSERIFIAGSKQYSQSESLDQIPNNVAHATEGKMARVCWKGKRRSKARKKRKKKSSKSLAHAGVALAKPLPRTPEQESCTIPVQEDESPLGAPYVRNTPQFTKPLKEPGLGQLCFKQLGEGLRPALPRSELHKLISPLQCLNHVWKLHHPQDGGPLPLPTHPFPYSRLPHPFPFHPLQPWKPHPLESFLGKLACVDSQKPLPDPHLSKLACVDSPKPLPGPHLEPSCLSRGAHEKFSVEEYLVHALQGSVSSSQAHSLTSLAKTWAARGSRS", "notes": "Yeast two-hybrid bait in pGBKT7"}},
  "key": {"[1]": {"molecular_target": "B2", "test": "co-immunoprecipitation from HeLa cells with anti-NIK monoclonal antibody, Western blot"}, "[2]": {"molecular_target": "T1, NF-κB inducing kinase (NIK), human, full length (human, UniProt Q99558 1-947)", "T1 construct": "Yeast two-hybrid: cloned into pGBKT7 as bait (fusion partner not spelled out); Co-immunoprecipitation: N-terminal 6 myc tag (pCS3MTNIK) in 293T cells, or His tag in HeLa cells; also called intact NIK; wild type NIK", "test": "yeast two-hybrid, β-gal colour, strain SFY526 (bait NIK, prey HC8)", "from_the_text": "(§1) Yeast 2 Hybrid Screening Assays: NIK or its deletions were cloned into pGBKT7 vector as bait and the preys were re-cloned into pGADT7 vector for assay in the yeast strain SFY526. The system used for screening was the Matchmaker version III (clontech). The prey was pretransformed human bone marrow library (cat# HY4053AH) pooled from 51 males/females in the age range 22-70. It belongs to a new generation of 2 hybrid libraries that offers high stringent quadruple drop out (QDO) selection along with α-gal assay. Clones growing on plates without LEU, TRP, HIS and ADE were reconfirmed by α-gal assay. Plasmids of the positive clones were prepared by lysis of the yeast cells with detergent and mechanical stress followed by phenol extraction and ethanol precipitation of the DNA. Encoded inserts from the plasmids were amplified by PCR with the primers specific for the library vector pACT2.\n(§2) A yeast 2 hybrid screening was effected using intact NIK cDNA (GenBank Accession No. Y10256; SEQ ID NO: 5), NIK-C-terminus (amino acids 624-947 of SEQ ID NO: 5) or NIK-N terminus (amino acids 1-367) as a prey. The most prevalent prey which was found in these screenings was the α7 subunit (HC8) (GenBank Accession No. XM_{—}050947). […]"}, "[3]": {"molecular_target": "T2, NIK-C-terminus (amino acids 624-947 of SEQ ID NO: 5) (human, UniProt Q99558 624-947)", "T2 construct": "Yeast two-hybrid bait in pGBKT7 (fusion partner not spelled out)", "T2 sequence (Q99558 624-947)": "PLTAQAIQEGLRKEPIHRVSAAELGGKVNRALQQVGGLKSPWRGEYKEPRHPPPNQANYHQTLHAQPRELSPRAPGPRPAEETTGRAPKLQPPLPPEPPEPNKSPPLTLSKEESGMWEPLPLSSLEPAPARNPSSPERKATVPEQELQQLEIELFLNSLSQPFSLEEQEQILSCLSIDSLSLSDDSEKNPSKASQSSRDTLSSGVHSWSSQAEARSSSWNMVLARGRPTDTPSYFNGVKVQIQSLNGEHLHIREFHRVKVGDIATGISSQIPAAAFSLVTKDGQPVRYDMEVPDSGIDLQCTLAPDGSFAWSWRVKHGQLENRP", "test": "yeast two-hybrid, β-gal colour, strain SFY526 (bait NIK-C-ter, prey HC8)", "from_the_text": "as §1, §2"}, "[4]": {"molecular_target": "B2", "test": "yeast two-hybrid, β-gal colour, strain SFY526 (bait NIK-N-ter, prey HC8)", "from_the_text": "as §1, §2"}, "TRAF2": {"molecular_target": "T3, TRAF2 (UniProt Q12933 1-501, limits assumed)", "T3 sequence (looked up)": "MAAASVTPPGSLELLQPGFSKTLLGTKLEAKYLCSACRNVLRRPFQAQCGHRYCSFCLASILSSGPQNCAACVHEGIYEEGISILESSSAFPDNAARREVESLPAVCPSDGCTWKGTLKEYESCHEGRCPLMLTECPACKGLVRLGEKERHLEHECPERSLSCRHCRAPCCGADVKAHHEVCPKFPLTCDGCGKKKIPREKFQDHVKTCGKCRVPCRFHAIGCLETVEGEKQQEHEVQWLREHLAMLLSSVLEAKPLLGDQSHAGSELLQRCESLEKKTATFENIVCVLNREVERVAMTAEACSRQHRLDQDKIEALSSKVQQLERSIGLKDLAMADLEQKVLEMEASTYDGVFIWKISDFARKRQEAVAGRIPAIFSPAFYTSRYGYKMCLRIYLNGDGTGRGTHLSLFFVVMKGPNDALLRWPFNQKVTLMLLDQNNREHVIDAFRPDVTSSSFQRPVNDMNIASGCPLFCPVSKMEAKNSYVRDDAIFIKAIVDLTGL", "test": "yeast two-hybrid, β-gal colour, strain SFY526"}},
  "data": [
    {"binder": "B1", "values": [
      {"measurement": "binding result", "setting": "[1]", "result": "no binding"}
    ]},
    {"binder": "B2", "values": [
      {"measurement": "binding result", "setting": "[2]", "result": "binds"},
      {"measurement": "binding result", "setting": "[3]", "result": "binds"}
    ]},
    {"binder": "B3", "values": [
      {"measurement": "binding result", "setting": "[4]", "result": "binds"},
      {"measurement": "binding result", "setting": "TRAF2", "result": "no binding"}
    ]}
  ]
}
